Experimental data reported in the Immune Epitope Database (IEDB).

Tests used:
[1] = biological target: HLA-B*07:02; test: IEDB peptide-MHC binding, purified MHC/direct/fluorescence; filed as Kd, often an IC50 or EC50 that approximates it; ≥ and ≤ were set here for values at or beyond the usual limits of such assays; details: source organism: Pseudomonas aeruginosa
[2] = biological target: HLA-A*02:16; test: IEDB peptide-MHC binding, purified MHC/competitive/fluorescence; filed as Kd, often an IC50 or EC50 that approximates it; ≥ and ≤ were set here for values at or beyond the usual limits of such assays
[3] = biological target: HLA-B*08:02; test: IEDB peptide-MHC binding, purified MHC/direct/fluorescence; filed as Kd, often an IC50 or EC50 that approximates it; ≥ and ≤ were set here for values at or beyond the usual limits of such assays; details: source organism: Dengue virus 2 Thailand/16681/84
[4] = biological target: HLA-B*27:05; test: IEDB peptide-MHC binding, purified MHC/competitive/fluorescence; filed as Kd, often an IC50 or EC50 that approximates it; ≥ and ≤ were set here for values at or beyond the usual limits of such assays
[5] = biological target: HLA-A*02:01; test: as above
[6] = biological target: HLA-A*02:03; test: as above
[7] = biological target: HLA-A*02:11; test: as above; details: source organism: Vibrio parahaemolyticus AQ3810
[8] = biological target: HLA-A*02:12; test: as above
[9] = biological target: HLA-A*02:19; test: as above
[10] = biological target: HLA-A*24:03; test: as above
[11] = biological target: HLA-A*26:01; test: as above
[12] = biological target: HLA-A*31:01; test: as above
[13] = biological target: HLA-A*68:02; test: as above
[14] = biological target: HLA-A*69:01; test: as above
[15] = biological target: HLA-B*15:01; test: as above
[16] = biological target: HLA-B*15:17; test: as above
[17] = biological target: HLA-B*18:01; test: as above
[18] = biological target: HLA-B*27:03; test: as above
[19] = biological target: HLA-B*39:01; test: as above
[20] = biological target: HLA-B*46:01; test: as above
[21] = biological target: HLA-B*51:01; test: as above
[22] = biological target: HLA-B*57:01; test: as above
[23] = biological target: HLA-A*24:02; test: as above
[24] = biological target: HLA-C*14:02; test: IEDB peptide-MHC binding, purified MHC/direct/fluorescence; filed as Kd, often an IC50 or EC50 that approximates it; ≥ and ≤ were set here for values at or beyond the usual limits of such assays; details: source organism: Entamoeba histolytica HM-1:IMSS
[25] = biological target: HLA-C*15:02; test: as above; details: source organism: Entamoeba histolytica HM-1:IMSS
[26] = source organism: Vibrio parahaemolyticus AQ3810
[27] = source organism: Influenza A virus (A/Gf/HK/SSP607/2003(H9N2))

Measured: Kd

RLTGREGAV
7.02 µM: [1]
0.345 µM: [2]; source organism: Pseudomonas aeruginosa PACS2

KCRLRMDKL
≥ 20 µM: [3]

GKLNRLIGK
1.84 µM: [4]; source organism: Influenza A virus (A/Hong Kong/CUHK13527/2003(H3N2))

HFIYHKREK
0.0188 µM: [12]; [26]
≥ 20 µM: [5]; [26] | [6]; [26] | [7] | [8]; [26] | [2]; [26] | [9]; [26] | [10]; [26] | [11]; [26] | [13]; [26] | [14]; [26] | [15]; [26] | [16]; [26] | [17]; [26] | [18]; [26] | [19]; [26] | [20]; [26] | [21]; [26] | [22]; [26]

AMITYITRK
0.158 µM: [12]; [27]
≥ 20 µM: [5]; [27] | [6]; [27] | [8]; [27] | [2]; [27] | [9]; [27] | [10]; [27] | [11]; [27] | [13]; [27] | [14]; [27] | [15]; [27] | [16]; [27] | [17]; [27] | [18]; [27] | [19]; [27] | [20]; [27] | [21]; [27] | [22]; [27]

KQWRGDKML
0.0852 µM: [4]; source organism: Bacillus thuringiensis str. Al Hakam

KYNGIITDTI
0.0002 µM: [23]; source organism: Influenza A virus (A/goose/Guangdong/1/1996(H5N1))

SWLYNYFVF
0.438 µM: [24]
≥ 20 µM: [25]
0.0003 µM: [23]; source organism: Entamoeba histolytica HM-1:IMSS
